Source: PMC3680461, “Diversity of Plant Methionine Sulfoxide Reductases B and Evolution of a Form Specific for Free Methionine Sulfoxide” (PLoS ONE, 2013)
Residue numbers refer to the chain shown, from its start.

Key:
GmMSRB2 [1] = target: T1, GmMSRB2 (Glycine max, UniProt C6SXW1); experiment: NADPH consumption, TRX-coupled; type: biochemical; settings: 25 µM yeast TRX2, 2 µM TRX reductase, 200 µM NADPH; S/R mixture used, Km given as half of measured value; read-out: Free L-MetO / Km (μM)^c
T1 construct: full-length, pDEST17 His-tag, E. coli BL21(DE3), purified; cytosolic (no signal peptide predicted)
T1 sequence (C6SXW1 1-138): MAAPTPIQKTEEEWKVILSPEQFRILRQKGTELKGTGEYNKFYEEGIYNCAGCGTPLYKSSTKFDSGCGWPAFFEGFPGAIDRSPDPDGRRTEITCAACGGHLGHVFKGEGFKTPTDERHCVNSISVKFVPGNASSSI
Text: (§1) NADPH consumption, TRX-coupled on GmMSRB2

GmMSRB4 = target: T2, GmMSRB4 (Glycine max, UniProt I1ME37); experiment: NADPH consumption, TRX-coupled; type: biochemical; settings: 25 µM yeast TRX2, 2 µM TRX reductase, 200 µM NADPH; S/R mixture used, Km given as half of measured value; read-out: Free L-MetO / Km (μM)^c
T2 construct: gene LOC100784622; without predicted N-terminal chloroplast signal peptide (predicted TP length 67), pET21b His-tag, E. coli BL21(DE3), purified
T2 sequence (I1ME37 68-204): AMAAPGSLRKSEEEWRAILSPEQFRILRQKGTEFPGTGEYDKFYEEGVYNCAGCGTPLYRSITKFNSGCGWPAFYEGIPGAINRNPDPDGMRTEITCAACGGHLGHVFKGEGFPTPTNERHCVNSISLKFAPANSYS
Text: (§2) NADPH consumption, TRX-coupled on GmMSRB4

GmMSRB2 [2] = target: T3, GmMSRB2 (Glycine max, UniProt C6SXW1, C68S); experiment: DTT-dependent MSR activity; type: biochemical; settings: DTT as reductant
T3 construct: full-length, pDEST17 His-tag, E. coli BL21(DE3), purified; cytosolic (no signal peptide predicted)
T3 sequence (C6SXW1 1-138 C68S): T1 sequence (C6SXW1 1-138) with C68S

GmMSRB1 = target: T4, GmMSRB1 (Glycine max, UniProt C6TFD8); experiment: DTT-dependent MSR activity; type: biochemical; settings: DTT as reductant
T4 construct: without predicted N-terminal chloroplast signal peptide (predicted TP length 45), pET21b His-tag, E. coli BL21(DE3), purified
T4 sequence (C6TFD8 46-202): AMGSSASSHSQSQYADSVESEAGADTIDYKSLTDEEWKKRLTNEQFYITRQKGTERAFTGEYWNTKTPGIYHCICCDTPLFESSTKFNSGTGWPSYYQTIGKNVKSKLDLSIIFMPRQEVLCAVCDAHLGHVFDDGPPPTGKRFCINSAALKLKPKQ

[3] = substrate: CC(=O)N[C@@H](CC[S+](C)[O-])C(=O)O; experiment: NADPH consumption, TRX-coupled; type: biochemical, Glycine max; settings: 25 µM yeast TRX2, 2 µM TRX reductase, 200 µM NADPH
Text: as §2

[4] = substrate: CC(=O)N[C@@H](CC[S+](C)[O-])C(=O)O; experiment: NADPH consumption, TRX-coupled; type: biochemical, Glycine max; settings: 25 µM yeast TRX2, 2 µM TRX reductase, 200 µM NADPH; remark: listed apart in the source
Text: as §1

Free L-MetO
Km (GmMSRB2 [1]): 2090 µM
Km (GmMSRB4): 1450 µM

CN(C)c1ccc(/N=N/c2ccc(S(=O)(=O)N[C@@H](CC[S@@+](C)[O-])C(=O)O)cc2)cc1 [dabsyl-MetO]
DTT-dependent MSR activity (GmMSRB2 [2]): the C68S GmMSRB2 mutant was active towards both protein-based and free MetO
DTT-dependent MSR activity (GmMSRB1): GmMSRB1 was two-fold more efficient than GmMSRB2 or GmMSRB4 in reducing dabsylated Met-R-O

B1: GmMSRB4 (Glycine max) (protein)
chain: T2 sequence (I1ME37 68-204)
notes: without predicted N-terminal chloroplast signal peptide (predicted TP length 67), pET21b His-tag, E. coli BL21(DE3), purified
Km [3]: 49 ± 6 µM
kcat [3]: 0.24 ± 0.01 s⁻¹
kcat/Km [3]: 5000 M⁻¹ s⁻¹

B2: GmMSRB2 (Glycine max) (protein)
chain: T1 sequence (C6SXW1 1-138)
notes: full-length, pDEST17 His-tag, E. coli BL21(DE3), purified; cytosolic (no signal peptide predicted)
Km [4]: 49 ± 5 µM
kcat [4]: 2.04 ± 0.06 s⁻¹
kcat/Km [4]: 42000 M⁻¹ s⁻¹
